Results published in patent US20130244255A1 (published 2013).

Key:
[1] = target: T1, GPNMB (CG56972) as expressed by human cell lines (human, UniProt Q14956 23-492); test: FACS on THP-1 cells, antibody 1 ug/mL
T1 construct: Endogenous or transfected full-length protein on cells (FACS, killing assays) or in cell lysates (immunoprecipitation, blot); also called native GPNMB protein
T1 sequence: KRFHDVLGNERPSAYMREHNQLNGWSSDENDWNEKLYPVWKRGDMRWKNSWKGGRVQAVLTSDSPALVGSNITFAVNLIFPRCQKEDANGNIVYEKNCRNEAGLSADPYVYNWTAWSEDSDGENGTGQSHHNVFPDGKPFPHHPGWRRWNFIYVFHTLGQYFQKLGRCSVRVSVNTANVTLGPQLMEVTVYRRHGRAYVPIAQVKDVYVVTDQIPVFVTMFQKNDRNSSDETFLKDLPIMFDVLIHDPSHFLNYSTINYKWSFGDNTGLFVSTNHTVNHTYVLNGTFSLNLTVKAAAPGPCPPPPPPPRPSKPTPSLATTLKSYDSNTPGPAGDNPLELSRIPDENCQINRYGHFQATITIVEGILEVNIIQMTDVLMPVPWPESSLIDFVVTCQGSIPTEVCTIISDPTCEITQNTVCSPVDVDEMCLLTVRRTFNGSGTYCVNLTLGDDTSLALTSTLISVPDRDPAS
Description: (§1) Lymphoma or leukemia derived cells were washed twice with ice-cold FACS buffer and resuspended at 1 million cells per assay tube. […] Cells were then washed 2-3 times and resuspended in 1 mL of ice-cold FACS buffer. R-PE-conjugated goat anti-human antibody at 1:100 dilution was added and cells were incubated on ice for 30 min. Cells were washed 3 times with 1 mL of ice-cold FACS buffer, fixed with 0.5-1 mL of 1% formaldehyde in PBS and analyzed by Flow Cytometry.

[2] = target: T1, GPNMB (CG56972) as expressed by human …; test: FACS on U937 cells, antibody 1 ug/mL
Description: as §1

[3] = target: T1, GPNMB (CG56972) as expressed by human …; test: FACS on A2058 cells
[4] = target: T1, GPNMB (CG56972) as expressed by human …; test: FACS on U-118-MG cells, CR011 10 ug/mL
Description: (§2) Quantitative analysis of CG56972 expression on the surface of cell lines was determined by flow cytometry (FACS). […] Cells were fixed in 1% paraformaldehyde/PBS and examined on a Becton Dickinson FACSCalibur flow cytometer. Data analysis was performed with Becton Dickinson Cell Quest software version 3.3 and the geometric mean fluorescence intensity ratio (GMR) was determined for each cell type.
Geometric Mean ratios (GMR) were determined by flow cytometric analysis.

[5] = target: T1, GPNMB (CG56972) as expressed by human …; test: FACS on SIG-M5 cells, antibody 1 ug/mL
Description: as §1

[6] = target: T1, GPNMB (CG56972) as expressed by human …; test: FACS on SU-DHL-1 cells, antibody 1 ug/mL
Description: as §1

[7] = target: T1, GPNMB (CG56972) as expressed by human …; test: FACS on U87MG cells, CR011 10 ug/mL
Description: as §2

[8] = target: T1, GPNMB (CG56972) as expressed by human …; test: FACS on MEWO cells
[9] = target: T1, GPNMB (CG56972) as expressed by human …; test: FACS on SR cells, antibody 1 ug/mL
Description: as §1

[10] = target: T1, GPNMB (CG56972) as expressed by human …; test: FACS on HH cells, antibody 1 ug/mL
[11] = target: T1, GPNMB (CG56972) as expressed by human …; test: FACS on SW 1783 cells, CR011 10 ug/mL
Description: as §2

[12] = target: T1, GPNMB (CG56972) as expressed by human …; test: FACS on SUP-M2 cells, antibody 1 ug/mL
Description: as §1

[13] = target: T1, GPNMB (CG56972) as expressed by human …; test: FACS on G361 cells
[14] = target: T1, GPNMB (CG56972) as expressed by human …; test: FACS on MV4-11 cells, antibody 1 ug/mL
[15] = target: T1, GPNMB (CG56972) as expressed by human …; test: FACS on HUT-78 cells, antibody 1 ug/mL
[16] = target: T1, GPNMB (CG56972) as expressed by human …; test: FACS on UACC-257 cells
[17] = target: T2, Recombinant human GPNMB extra-cellular domain (ECD) with a C-terminus V5-HIS tag (human, UniProt Q14956 23-492); test: Biacore, mAb captured on protein A
T2 construct: Expressed in HEK293; also called GPNMB-V5His; GPNMB-soluble
T2 sequence: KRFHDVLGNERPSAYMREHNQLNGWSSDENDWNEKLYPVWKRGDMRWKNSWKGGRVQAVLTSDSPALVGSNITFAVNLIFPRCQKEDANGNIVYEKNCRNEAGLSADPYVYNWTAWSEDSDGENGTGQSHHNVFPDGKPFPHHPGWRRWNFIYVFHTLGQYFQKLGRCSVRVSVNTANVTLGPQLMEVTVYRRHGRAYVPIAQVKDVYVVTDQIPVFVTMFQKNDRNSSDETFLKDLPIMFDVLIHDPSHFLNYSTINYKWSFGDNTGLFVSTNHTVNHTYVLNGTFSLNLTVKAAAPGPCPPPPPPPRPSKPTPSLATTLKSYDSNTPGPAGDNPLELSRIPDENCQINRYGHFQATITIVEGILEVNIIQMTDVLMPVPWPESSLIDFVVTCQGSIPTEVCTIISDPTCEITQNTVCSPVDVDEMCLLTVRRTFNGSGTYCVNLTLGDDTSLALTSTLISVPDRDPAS
Description: Certain Hybridoma cell supernatants (29) were analyzed for binding to GPNMB by BiaCore® 2000 biosensor equipped with a research-grade CM5 sensor chip. A 1:25 dilution of cell supernatant was passed over a protein A surface for 5 min followed by washing the surface for 10 mins. […] GPNMB binding data for each mAb was normalized for the amount of mAb captured on each surface. Normalized, drift corrected responses were also measured. The sensorgrams were fit to a simple 1:1 kinetic model.

[18] = target: T1, GPNMB (CG56972) as expressed by human …; test: FACS on KG1a cells, antibody 1 ug/mL
Description: as §1

[19] = target: T1, GPNMB (CG56972) as expressed by human …; test: FACS on HT144 cells
[20] = target: T1, GPNMB (CG56972) as expressed by human …; test: FACS on Jurkat cells, antibody 1 ug/mL
Description: as §1

[21] = target: T1, GPNMB (CG56972) as expressed by human …; test: FACS on WM-266-4 cells
[22] = target: T1, GPNMB (CG56972) as expressed by human …; test: FACS on T98G cells, CR011 10 ug/mL
Description: as §2

[23] = target: T1, GPNMB (CG56972) as expressed by human …; test: FACS on Karpas 299 cells, antibody 1 ug/mL
Description: as §1

[24] = target: T1, GPNMB (CG56972) as expressed by human …; test: FACS on SF-295 cells, CR011 10 ug/mL
Description: as §2

B1: CR011 mAb 1.15.1 (IgG2) (antibody)
heavy: QVQLQESGPGLVKPSQTLSLTCTVSGGSISSFNYYWSWIRHHPGKGLEWIGYIYYSGSTYSNPSLKSRVTISVDTSKNQFSLTLSSVTAADTAVYYCARGYNWNYFDYWGQGTLVTVSSASTKGPSVFPLAPCSRSTSESTAALGCLVKDYFPEPVTVSWNSGALTSGVHTFPAVLQSSGLYSLSSVVTVPSSNFGTQTYTCNVDHKPSNTKVDKTVERKCCVECPPCPAPPVAGPSVFLFPPKPKDTLMISRTPEVTCVVVDVSHEDPEVQFNWYVDGVEVHNAKTKPREEQFNSTFRVVSVLTVVHQDWLNGKEYKCKVSNKGLPAPIEKTISKTKGQPREPQVYTLPPSREEMTKNQVSLTCLVKGFYPSDIAVEWESNGQPENNYKTTPPMLDSDGSFFLYSKLTVDKSRWQQGNVFSCSVMHEALHNHYTQKSLSLSPGK
VL: not shown
notes: also called CR011.1.15.1; CR011 IgG2
[1]
  Geo Mean Ratio: 6.1 ratio
[2]
  Geo Mean Ratio: 17.3 ratio
[3]
  Geo Mean Ratio (relative to isotype): 4.1 ratio
[4]
  CR011 Fold Shift (GMR): 7.4 fold
[5]
  Geo Mean Ratio: 2.9 ratio
[6]
  Geo Mean Ratio: 4.8 ratio
[7]
  CR011 Fold Shift (GMR): 1.5 fold
[8]
  Geo Mean Ratio (relative to isotype): 14.1 ratio
[9]
  Geo Mean Ratio: 7.1 ratio
[10]
  Geo Mean Ratio: 1 ratio
[11]
  CR011 Fold Shift (GMR): 1.1 fold
[12]
  Geo Mean Ratio: 4.8 ratio
[13]
  Geo Mean Ratio (relative to isotype): 8 ratio
[14]
  Geo Mean Ratio: 1.9 ratio
[15]
  Geo Mean Ratio: 1.5 ratio
[16]
  Geo Mean Ratio (relative to isotype): 7 ratio
[17]
  Kd: 52 nM
  koff: 0.000855 s⁻¹
  kon: 16500 M⁻¹ s⁻¹
[18]
  Geo Mean Ratio: 2.7 ratio
[19]
  Geo Mean Ratio (relative to isotype): 7.4 ratio
[20]
  Geo Mean Ratio: 14.7 ratio
[21]
  Geo Mean Ratio (relative to isotype): 13.6 ratio
[22]
  CR011 Fold Shift (GMR): 1.3 fold
[23]
  Geo Mean Ratio: 10.7 ratio
[24]
  CR011 Fold Shift (GMR): 1.8 fold
